The series deals with the molecule itself. Put plainly: self-polymerization in PBS, reducing SDS-PAGE and Western blot.

B1: Zfra1-31 (full-length zinc finger-like protein that regulates apoptosis, synthetic peptide) (peptide)
peptide: MSSRRSSSCKYCEQDFRAHTQKNAATPFLAN
notes: also called Zfra peptide; full-length Zfra
B1: the binding result is on record as “binds”.
